Data reported in US20150104448A1 (TRUE NORTH THERAPEUTICS, published 2015).

How the values were obtained:
[1] = target: T1, purified human activated C1s protein, two-chain form (Homo sapiens, UniProt P09871 16-688); test: kinetic binding measurement, method not stated; kinetic measurement, native human C1s
T1 construct: Also used here for C1s acting in human serum assays; also called human C1s; active C1s
T1 sequence: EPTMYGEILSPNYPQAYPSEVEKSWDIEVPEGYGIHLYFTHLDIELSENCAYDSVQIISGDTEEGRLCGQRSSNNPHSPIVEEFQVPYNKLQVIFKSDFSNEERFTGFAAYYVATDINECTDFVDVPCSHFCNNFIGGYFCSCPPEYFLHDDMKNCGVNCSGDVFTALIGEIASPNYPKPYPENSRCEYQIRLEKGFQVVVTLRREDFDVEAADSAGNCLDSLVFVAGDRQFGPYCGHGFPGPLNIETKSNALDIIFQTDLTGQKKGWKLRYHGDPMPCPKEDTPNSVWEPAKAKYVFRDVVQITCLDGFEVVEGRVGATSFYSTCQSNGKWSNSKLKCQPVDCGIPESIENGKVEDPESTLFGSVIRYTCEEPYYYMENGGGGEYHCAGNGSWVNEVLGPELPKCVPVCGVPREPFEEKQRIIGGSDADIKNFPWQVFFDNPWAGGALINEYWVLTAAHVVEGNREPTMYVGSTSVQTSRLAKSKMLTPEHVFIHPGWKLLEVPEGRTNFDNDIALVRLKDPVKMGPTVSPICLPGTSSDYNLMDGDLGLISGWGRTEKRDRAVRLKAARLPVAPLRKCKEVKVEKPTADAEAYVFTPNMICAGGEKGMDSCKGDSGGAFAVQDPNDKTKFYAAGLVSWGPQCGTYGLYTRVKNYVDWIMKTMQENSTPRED

Inactive-C1s = target: T2, Inactive-C1s (Homo sapiens, UniProt P09871); test: kinetic binding measurement, method not stated; Table 4, Inactive-C1s
T2 construct: proenzyme (pro-C1s); also called pro-C1s
T2 sequence (single chain, looked up): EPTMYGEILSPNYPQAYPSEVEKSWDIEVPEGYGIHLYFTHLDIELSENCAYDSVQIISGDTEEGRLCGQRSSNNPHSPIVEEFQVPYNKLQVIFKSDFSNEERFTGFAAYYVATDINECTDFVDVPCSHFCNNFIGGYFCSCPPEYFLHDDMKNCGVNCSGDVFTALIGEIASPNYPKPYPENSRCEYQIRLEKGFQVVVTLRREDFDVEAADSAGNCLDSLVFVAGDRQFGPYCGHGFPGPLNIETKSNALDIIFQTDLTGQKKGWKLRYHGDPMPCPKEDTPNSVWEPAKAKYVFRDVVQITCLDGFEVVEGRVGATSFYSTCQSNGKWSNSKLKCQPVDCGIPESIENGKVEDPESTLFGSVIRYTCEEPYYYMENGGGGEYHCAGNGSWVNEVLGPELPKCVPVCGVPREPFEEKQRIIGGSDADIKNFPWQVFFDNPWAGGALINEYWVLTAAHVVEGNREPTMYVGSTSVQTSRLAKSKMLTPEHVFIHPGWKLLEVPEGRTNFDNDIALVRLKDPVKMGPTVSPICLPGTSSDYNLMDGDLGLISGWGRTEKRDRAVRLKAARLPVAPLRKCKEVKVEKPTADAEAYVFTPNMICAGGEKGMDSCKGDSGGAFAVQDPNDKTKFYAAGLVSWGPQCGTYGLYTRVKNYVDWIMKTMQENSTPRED

purified rat C1s = target: T3, purified rat C1s (rat, UniProt Q6P6T1 16-688, limits assumed); test: ELISA, purified rat C1s immobilized on micro-titer plates, increasing dilutions of antibody
T3 construct: also called rat complement C1s protein
T3 sequence (looked up): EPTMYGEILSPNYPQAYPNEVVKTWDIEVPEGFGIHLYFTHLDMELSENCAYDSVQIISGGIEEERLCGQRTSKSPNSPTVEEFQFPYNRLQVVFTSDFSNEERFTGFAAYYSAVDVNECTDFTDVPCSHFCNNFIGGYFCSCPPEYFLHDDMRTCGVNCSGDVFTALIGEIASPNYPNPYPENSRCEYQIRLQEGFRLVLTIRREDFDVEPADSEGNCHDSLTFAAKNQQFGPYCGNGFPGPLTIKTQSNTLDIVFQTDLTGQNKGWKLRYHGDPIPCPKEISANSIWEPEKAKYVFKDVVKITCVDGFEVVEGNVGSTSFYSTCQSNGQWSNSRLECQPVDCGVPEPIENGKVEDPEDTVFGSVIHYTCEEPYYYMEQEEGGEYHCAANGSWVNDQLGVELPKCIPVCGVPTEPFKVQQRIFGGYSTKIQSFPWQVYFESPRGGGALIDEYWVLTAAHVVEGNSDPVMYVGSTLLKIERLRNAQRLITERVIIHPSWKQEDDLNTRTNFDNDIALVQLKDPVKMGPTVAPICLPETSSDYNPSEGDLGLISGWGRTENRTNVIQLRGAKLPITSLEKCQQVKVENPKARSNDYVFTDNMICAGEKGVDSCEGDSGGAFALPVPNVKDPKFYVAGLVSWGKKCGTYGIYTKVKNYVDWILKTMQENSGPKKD
Method: ELISA assays were performed with purified rat C1s immobilized on micro-titer plates and increasing dilutions of IPN003 or M81.

[2] = target: T1, purified human activated C1s protein, …; test: kinetic binding measurement, method not stated; lower end of the printed KD range, native human C1s
[3] = target: T1, purified human activated C1s protein, …; test: competition ELISA, plate-coated human C1s; competitor biotin-labeled M81 at 0.5E-9 M; competition with biotin-labeled M81 (0.5E-9 M), plate-coated native human C1s
Method: To determine if IPN003 could compete binding of M81 to human C1s, competition assays were performed, in which biotin-labeled M81 (final concentration 0.5E-9 M) was incubated with increasing concentrations of unlabeled antibodies in wells coated with human C1s.

[4] = target: T1, purified human activated C1s protein, …; test: kinetic binding measurement, method not stated; Table 4, Active-C1s
C1r = target: T4, C1r; test: ELISA, target proteins immobilized on micro-titer plates
T4 construct: member of group m5; also called complement C1r
T4 chain: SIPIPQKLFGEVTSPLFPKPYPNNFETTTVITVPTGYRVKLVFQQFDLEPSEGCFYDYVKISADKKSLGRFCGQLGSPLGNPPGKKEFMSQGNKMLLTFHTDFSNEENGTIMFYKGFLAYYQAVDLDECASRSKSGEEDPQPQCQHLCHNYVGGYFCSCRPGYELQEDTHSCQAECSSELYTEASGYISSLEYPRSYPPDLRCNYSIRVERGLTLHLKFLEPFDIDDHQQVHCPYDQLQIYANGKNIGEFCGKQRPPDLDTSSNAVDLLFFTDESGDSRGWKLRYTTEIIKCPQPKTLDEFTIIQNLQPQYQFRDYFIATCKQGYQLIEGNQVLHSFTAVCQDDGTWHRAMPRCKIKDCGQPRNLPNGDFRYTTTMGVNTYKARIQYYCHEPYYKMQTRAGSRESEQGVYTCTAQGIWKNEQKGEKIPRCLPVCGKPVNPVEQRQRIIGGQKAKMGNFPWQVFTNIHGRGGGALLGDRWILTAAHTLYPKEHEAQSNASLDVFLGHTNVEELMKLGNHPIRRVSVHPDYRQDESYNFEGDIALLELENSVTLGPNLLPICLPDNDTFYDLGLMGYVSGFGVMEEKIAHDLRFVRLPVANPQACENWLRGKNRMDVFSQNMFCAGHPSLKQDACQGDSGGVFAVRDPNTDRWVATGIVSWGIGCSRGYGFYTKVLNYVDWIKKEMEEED
Method: (§1) To determine whether IPN003 could bind other components of the complement cascade, ELISA assays were performed with target proteins immobilized on micro-titer plates.

C2 = target: T5, C2; test: as above
T5 construct: member of group m5; also called complement C2
T5 chain: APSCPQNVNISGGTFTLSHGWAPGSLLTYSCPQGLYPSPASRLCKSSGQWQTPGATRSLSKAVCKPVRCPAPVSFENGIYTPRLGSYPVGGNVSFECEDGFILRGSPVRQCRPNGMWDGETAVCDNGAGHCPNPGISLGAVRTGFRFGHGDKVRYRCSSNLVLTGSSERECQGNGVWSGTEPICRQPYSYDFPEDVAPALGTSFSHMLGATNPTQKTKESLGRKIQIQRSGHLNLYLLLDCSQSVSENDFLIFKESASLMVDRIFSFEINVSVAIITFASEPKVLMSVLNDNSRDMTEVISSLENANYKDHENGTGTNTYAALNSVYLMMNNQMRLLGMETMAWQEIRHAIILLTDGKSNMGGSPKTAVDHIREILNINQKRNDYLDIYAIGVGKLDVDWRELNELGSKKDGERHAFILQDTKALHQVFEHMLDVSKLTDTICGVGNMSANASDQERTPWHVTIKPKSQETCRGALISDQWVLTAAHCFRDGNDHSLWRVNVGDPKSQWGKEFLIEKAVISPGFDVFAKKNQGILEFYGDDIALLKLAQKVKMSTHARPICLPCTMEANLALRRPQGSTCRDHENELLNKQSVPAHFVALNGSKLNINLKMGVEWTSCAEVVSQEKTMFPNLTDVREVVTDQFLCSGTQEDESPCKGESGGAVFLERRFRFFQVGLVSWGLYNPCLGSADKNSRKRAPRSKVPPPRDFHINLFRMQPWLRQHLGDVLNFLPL
Method: as §1

[5] = target: T1, purified human activated C1s protein, …; test: as above
Method: as §1

koff [1]: 0.000553 s⁻¹
kon [1]: 356000 M⁻¹ s⁻¹
Kd (Inactive-C1s): 1580 pM
koff (Inactive-C1s): 0.000553 s⁻¹
kon (Inactive-C1s): 356000 M⁻¹ s⁻¹
Kd (purified rat C1s): 200 pM
Kd [2]: 1580 to 2040 pM
IC50 [3]: 330 pM
Kd [4]: 2040 pM
koff [4]: 0.000658 s⁻¹
kon [4]: 323000 M⁻¹ s⁻¹
binding result (C1r): no binding (tested: about 2e-7 M)
binding result (C2): no binding (tested: about 2e-7 M)
EC50 (read off the curve) [5]: ~300 pM
B1: Anti-C1s monoclonal antibody IPN003 (antibody, V domains shown)
VH: EVMLVESGGALVKPGGSLKLSCAASGFTFSNYAMSWVRQIPEKRLEWVATISSGGSHTYYLDSVKGRFTISRDNARDTLYLQMSSLRSEDTALYYCARLFTGYAMDYWGQGTSVTVSS
VL: QIVLTQSPAIMSASLGERVTMTCTASSSVSSSYLHWYQQKPGSSPKLWIYSTSNLASGVPARFSGSGSGTFYSLTISSMEAEDDATYYCHQYYRLPPITFGAGTKLELK
notes: Mouse monoclonal antibody from an NZBW hybridoma; Biotin-labeled in some assays; also called IPN-M34; M34
